The text below walks through data of PMC6053526, “Arabidopsis WRKY50 and TGA Transcription Factors Synergistically Activate Expression of PR1” (Frontiers in Plant Science, 2018).

The assay has as its target AtWRKY50 full length fused to a half of yellow fluorescent protein (BiFC) (Arabidopsis, UniProt Q8VWQ5 1-173). The experiment in a line: cell-based or functional assay.

Chain of AtWRKY50 full length fused to a half of yellow fluorescent protein (BiFC) (Q8VWQ5 whole entry, the tested form may be a part): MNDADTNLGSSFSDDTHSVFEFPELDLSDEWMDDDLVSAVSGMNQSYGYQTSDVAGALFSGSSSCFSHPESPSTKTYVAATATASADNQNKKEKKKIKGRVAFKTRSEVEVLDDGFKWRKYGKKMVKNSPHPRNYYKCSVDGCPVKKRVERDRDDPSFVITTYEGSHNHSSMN

B1: TGA2 full length fused to a half of yellow fluorescent protein (BiFC) (natural protein, Arabidopsis, UniProt P43273 1-330, looked up)
chain: MADTSPRTDVSTDDDTDHPDLGSEGALVNTAASDSSDRSKGKMDQKTLRRLAQNREAARKSRLRKKAYVQQLENSRLKLTQLEQELQRARQQGVFISGTGDQAHSTGGNGALAFDAEHSRWLEEKNKQMNELRSALNAHAGDSELRIIVDGVMAHYEELFRIKSNAAKNDVFHLLSGMWKTPAERCFLWLGGFRSSELLKLLANQLEPMTERQLMGINNLQQTSQQAEDALSQGMESLQQSLADTLSSGTLGSSSSGNVASYMGQMAMAMGKLGTLEGFIRQADNLRLQTLQQMIRVLTTRQSARALLAIHDYFSRLRALSSLWLARPRE
Consider B1, for which the “PR1::GUS reporter expression in Arabidopsis protoplasts co-transfected with 35S::AtWRKY50 and 35S::TGA2 (AtWRKY50 alone approximately 7-fold, TGA alone 2-fold)” value was at most 14 fold.

B2: TGA5 full length fused to a half of yellow fluorescent protein (BiFC) (natural protein, Arabidopsis, UniProt Q39163 1-330, looked up)
chain: MGDTSPRTSVSTDGDTDHNNLMFDEGHLGIGASDSSDRSKSKMDQKTLRRLAQNREAARKSRLRKKAYVQQLENSRLKLTQLEQELQRARQQGVFISSSGDQAHSTAGDGAMAFDVEYRRWQEDKNRQMKELSSAIDSHATDSELRIIVDGVIAHYEELYRIKGNAAKSDVFHLLSGMWKTPAERCFLWLGGFRSSELLKLIASQLEPLTEQQSLDINNLQQSSQQAEDALSQGMDNLQQSLADTLSSGTLGSSSSGNVASYMGQMAMAMGKLGTLEGFIRQADNLRLQTYQQMVRLLTTRQSARALLAVHNYTLRLRALSSLWLARPRE
As for B2, the “PR1::GUS reporter expression in Arabidopsis protoplasts co-transfected with 35S::AtWRKY50 and 35S::TGA5 (AtWRKY50 alone approximately 7-fold, TGA alone 2-fold)” value was at most 14 fold.
